Measured values as given in patent US20160222130A1 (Astellas, published 2016).

What was measured:
Test in all cases: SPR (Biacore T200); Tie2-Fc captured on anti-human IgG (Fc), Fab at 50 nM; mean of 3
Human Tie2 (1-452)m1-Fc = target: T1, Human Tie2 (1-452)m1-Fc (human, UniProt Q02763 23-452)
T1 construct: range 1-452
Method: (§1) SPR analysis was carried out in order to evaluate the binding activity of the human Tie2 (1-452)-Fc chimera protein and 23 mutant proteins thereof to the fully human 2-16A2-Fab.
(§2) For SPR analysis, Biacore T200 (GE Healthcare) was used. An anti-human IgG (Fc) antibody (Human Antibody Capture Kit, GE Healthcare) was fixed onto a CM5 sensor chip. The human Tie2 (1-452)-Fc chimeric protein and 23 mutant proteins thereof, diluted with HBS-EP (GE Healthcare) at 5 μg/mL, were each allowed for immobilization, and the capture-amount was measured. Thereafter, the fully human 2-16A2-Fab diluted with HBS-EP to 50 nM, the binding amount thereof to the human Tie2 (1-452)-Fc chimeric protein and 23 mutant proteins thereof were measured. Further, by dividing the binding amount with the capture-amount, the binding amount of the antibody in the unit immobilized antigen (hereinafter referred to as a binding ratio) was calculated. The arithmetic mean of three experiments and the relative value of the binding ratio of each mutant proteins when the binding ratio of the human Tie2 (1-452)-Fc chimeric protein was taken as 100% are shown in Table 7.

Human Tie2 (1-452)m3-Fc = target: T2, Human Tie2 (1-452)m3-Fc (human, UniProt Q02763 23-452)
T2 construct: range 1-452
Method: as §1, §2

Human Tie2 (1-452)r4-Fc = target: T3, Human Tie2 (1-452)r4-Fc (human, UniProt Q02763 23-452)
T3 construct: range 1-452
T3 sequence (Q02763 other isoform, or with tags, fused parts or gaps limits assumed, form in doubt): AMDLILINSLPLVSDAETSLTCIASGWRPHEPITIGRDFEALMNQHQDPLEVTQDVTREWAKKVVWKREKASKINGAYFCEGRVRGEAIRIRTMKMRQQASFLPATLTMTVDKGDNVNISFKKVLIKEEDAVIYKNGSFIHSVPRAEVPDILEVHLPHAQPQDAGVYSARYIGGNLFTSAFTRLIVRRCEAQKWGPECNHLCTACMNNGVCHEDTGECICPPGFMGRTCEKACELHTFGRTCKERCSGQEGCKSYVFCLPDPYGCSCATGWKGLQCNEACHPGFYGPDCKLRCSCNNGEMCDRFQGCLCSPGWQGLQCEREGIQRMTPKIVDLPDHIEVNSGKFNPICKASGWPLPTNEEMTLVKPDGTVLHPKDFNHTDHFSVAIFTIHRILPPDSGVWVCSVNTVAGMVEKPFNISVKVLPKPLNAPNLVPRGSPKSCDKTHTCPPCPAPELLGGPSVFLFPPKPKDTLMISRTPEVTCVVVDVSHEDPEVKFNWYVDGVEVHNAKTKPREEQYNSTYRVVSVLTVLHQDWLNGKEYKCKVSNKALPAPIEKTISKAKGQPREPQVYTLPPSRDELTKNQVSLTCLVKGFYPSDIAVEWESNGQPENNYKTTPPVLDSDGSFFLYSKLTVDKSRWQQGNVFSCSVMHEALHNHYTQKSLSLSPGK
Method: as §1, §2

Human Tie2 (1-452)r1-Fc = target: T4, Human Tie2 (1-452)r1-Fc (human, UniProt Q02763 23-452)
T4 construct: range 1-452
Method: as §1, §2

Human Tie2 (1-452)A6-Fc = target: T5, Human Tie2 (1-452)A6-Fc (human, UniProt Q02763 23-452)
T5 construct: range 1-452
Method: as §1, §2

Human Tie2 (1-452)y1-Fc = target: T6, Human Tie2 (1-452)y1-Fc (human, UniProt Q02763 23-452)
T6 construct: range 1-452
Method: as §1, §2

Human Tie2 (1-452)r2-Fc = target: T7, Human Tie2 (1-452)r2-Fc (human, UniProt Q02763 23-452)
T7 construct: range 1-452
Method: as §1, §2

Human Tie2 (1-452)g6-Fc = target: T8, Human Tie2 (1-452)g6-Fc (human, UniProt Q02763 23-452)
T8 construct: range 1-452
T8 sequence (Q02763 other isoform, or with tags, fused parts or gaps limits assumed, form in doubt): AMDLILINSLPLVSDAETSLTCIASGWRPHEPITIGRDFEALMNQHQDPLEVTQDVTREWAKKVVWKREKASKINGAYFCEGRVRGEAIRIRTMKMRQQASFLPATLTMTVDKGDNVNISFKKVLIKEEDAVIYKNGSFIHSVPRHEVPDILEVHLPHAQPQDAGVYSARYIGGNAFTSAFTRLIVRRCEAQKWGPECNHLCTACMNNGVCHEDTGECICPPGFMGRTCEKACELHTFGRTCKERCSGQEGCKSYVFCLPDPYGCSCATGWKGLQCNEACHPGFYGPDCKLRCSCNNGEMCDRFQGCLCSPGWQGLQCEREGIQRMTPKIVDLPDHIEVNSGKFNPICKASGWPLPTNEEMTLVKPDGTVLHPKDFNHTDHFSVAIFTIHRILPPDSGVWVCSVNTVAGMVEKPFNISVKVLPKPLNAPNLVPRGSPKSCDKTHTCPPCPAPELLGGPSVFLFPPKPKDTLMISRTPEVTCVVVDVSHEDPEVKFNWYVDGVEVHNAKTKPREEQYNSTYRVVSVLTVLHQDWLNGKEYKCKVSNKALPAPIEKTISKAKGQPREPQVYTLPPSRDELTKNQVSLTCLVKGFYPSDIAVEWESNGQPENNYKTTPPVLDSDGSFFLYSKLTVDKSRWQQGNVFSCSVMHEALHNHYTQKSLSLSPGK
Method: as §1, §2

Human Tie2 (1-452)g1-Fc = target: T9, Human Tie2 (1-452)g1-Fc (human, UniProt Q02763 23-452)
T9 construct: range 1-452
T9 sequence (Q02763 other isoform, or with tags, fused parts or gaps limits assumed, form in doubt): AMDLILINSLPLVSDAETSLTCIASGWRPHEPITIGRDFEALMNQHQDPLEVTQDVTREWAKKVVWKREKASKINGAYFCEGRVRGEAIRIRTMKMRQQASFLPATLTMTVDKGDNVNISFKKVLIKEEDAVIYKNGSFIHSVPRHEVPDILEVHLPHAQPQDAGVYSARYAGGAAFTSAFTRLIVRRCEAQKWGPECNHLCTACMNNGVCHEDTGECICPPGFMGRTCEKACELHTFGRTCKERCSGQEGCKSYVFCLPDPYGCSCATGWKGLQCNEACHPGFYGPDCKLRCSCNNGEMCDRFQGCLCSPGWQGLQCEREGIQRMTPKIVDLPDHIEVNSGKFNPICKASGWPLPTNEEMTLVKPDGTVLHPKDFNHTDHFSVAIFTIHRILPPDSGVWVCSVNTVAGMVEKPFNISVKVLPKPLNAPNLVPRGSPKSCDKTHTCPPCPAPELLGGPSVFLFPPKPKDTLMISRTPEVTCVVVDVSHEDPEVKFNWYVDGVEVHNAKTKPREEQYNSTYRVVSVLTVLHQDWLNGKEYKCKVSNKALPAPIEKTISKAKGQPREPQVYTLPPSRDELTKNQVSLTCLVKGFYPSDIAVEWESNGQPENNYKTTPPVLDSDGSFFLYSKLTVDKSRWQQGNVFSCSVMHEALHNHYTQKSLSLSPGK
Method: as §1, §2

Human Tie2 (1-452)g2-Fc = target: T10, Human Tie2 (1-452)g2-Fc (human, UniProt Q02763 23-452)
T10 construct: range 1-452
Method: as §1, §2

Human Tie2 (1-452)r6-Fc = target: T11, Human Tie2 (1-452)r6-Fc (human, UniProt Q02763 23-452)
T11 construct: range 1-452
T11 sequence (Q02763 other isoform, or with tags, fused parts or gaps limits assumed, form in doubt): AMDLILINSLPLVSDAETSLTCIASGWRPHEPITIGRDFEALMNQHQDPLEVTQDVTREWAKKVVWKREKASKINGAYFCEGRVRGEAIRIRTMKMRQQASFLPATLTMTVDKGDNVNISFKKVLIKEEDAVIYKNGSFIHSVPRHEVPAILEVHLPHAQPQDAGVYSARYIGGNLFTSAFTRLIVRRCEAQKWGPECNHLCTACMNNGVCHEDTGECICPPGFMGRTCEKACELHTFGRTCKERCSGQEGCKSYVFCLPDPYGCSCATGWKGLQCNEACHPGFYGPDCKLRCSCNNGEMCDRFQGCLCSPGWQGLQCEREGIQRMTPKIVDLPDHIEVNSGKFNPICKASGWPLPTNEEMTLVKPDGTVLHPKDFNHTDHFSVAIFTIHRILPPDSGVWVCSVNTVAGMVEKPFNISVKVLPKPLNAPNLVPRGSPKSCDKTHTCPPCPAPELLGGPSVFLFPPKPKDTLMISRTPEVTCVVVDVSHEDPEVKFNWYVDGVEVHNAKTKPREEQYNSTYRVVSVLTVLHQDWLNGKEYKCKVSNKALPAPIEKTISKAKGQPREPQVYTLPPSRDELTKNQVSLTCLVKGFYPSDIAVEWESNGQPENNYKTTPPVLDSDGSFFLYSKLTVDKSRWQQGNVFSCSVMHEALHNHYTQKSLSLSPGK
Method: as §1, §2

Human Tie2 (1-452)r7-Fc = target: T12, Human Tie2 (1-452)r7-Fc (human, UniProt Q02763 23-452)
T12 construct: range 1-452
T12 sequence (Q02763 other isoform, or with tags, fused parts or gaps limits assumed, form in doubt): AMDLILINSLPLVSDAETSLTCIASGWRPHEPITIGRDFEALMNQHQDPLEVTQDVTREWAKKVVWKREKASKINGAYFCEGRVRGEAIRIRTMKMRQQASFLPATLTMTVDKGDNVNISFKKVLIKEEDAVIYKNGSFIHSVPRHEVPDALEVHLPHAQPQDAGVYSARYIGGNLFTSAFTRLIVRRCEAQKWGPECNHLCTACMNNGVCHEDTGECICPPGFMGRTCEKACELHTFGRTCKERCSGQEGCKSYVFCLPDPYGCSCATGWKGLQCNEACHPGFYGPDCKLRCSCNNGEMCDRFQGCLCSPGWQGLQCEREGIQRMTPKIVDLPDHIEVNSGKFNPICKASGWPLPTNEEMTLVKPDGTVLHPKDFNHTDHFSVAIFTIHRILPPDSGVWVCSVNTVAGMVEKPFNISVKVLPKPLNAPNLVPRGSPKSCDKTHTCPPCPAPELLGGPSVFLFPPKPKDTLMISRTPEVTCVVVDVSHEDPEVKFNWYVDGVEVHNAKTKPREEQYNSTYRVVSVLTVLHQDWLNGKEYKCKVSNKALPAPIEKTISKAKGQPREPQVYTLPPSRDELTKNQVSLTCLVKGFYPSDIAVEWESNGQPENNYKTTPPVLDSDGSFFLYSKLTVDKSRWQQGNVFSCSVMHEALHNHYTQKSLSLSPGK
Method: as §1, §2

Human Tie2 (1-452)g3-Fc = target: T13, Human Tie2 (1-452)g3-Fc (human, UniProt Q02763 23-452)
T13 construct: range 1-452
T13 sequence (Q02763 other isoform, or with tags, fused parts or gaps limits assumed, form in doubt): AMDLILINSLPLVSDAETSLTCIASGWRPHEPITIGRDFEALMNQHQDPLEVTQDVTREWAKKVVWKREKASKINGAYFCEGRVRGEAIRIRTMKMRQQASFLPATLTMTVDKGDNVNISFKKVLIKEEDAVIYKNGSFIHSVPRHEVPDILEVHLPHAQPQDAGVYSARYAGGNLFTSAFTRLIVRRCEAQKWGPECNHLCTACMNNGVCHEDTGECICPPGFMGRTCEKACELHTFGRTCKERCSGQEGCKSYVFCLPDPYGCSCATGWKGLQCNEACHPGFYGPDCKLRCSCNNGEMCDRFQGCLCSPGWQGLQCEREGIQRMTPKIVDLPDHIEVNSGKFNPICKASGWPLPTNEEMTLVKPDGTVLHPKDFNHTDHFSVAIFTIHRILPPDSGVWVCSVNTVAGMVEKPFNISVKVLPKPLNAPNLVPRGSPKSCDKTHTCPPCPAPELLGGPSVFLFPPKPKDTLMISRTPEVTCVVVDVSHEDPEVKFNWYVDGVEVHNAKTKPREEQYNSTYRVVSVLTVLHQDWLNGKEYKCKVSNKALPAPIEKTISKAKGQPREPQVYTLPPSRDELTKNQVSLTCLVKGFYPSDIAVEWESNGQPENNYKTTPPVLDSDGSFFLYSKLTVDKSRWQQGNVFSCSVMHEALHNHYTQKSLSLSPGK
Method: as §1, §2

Human Tie2 (1-452)A1-Fc = target: T14, Human Tie2 (1-452)A1-Fc (human, UniProt Q02763 23-452)
T14 construct: range 1-452
Method: as §1, §2

[1] = target: T15, human Tie2 (1-452)-Fc chimeric protein (human, UniProt Q02763 23-452)
T15 construct: range 1-452; The stated range 1-452 begins at residue 1 of the precursor
Method: as §1, §2

Human Tie2 (1-452)g5-Fc = target: T16, Human Tie2 (1-452)g5-Fc (human, UniProt Q02763 23-452)
T16 construct: range 1-452
Method: as §1, §2

Human Tie2 (1-452)g4-Fc = target: T17, Human Tie2 (1-452)g4-Fc (human, UniProt Q02763 23-452)
T17 construct: range 1-452
T17 sequence (Q02763 other isoform, or with tags, fused parts or gaps limits assumed, form in doubt): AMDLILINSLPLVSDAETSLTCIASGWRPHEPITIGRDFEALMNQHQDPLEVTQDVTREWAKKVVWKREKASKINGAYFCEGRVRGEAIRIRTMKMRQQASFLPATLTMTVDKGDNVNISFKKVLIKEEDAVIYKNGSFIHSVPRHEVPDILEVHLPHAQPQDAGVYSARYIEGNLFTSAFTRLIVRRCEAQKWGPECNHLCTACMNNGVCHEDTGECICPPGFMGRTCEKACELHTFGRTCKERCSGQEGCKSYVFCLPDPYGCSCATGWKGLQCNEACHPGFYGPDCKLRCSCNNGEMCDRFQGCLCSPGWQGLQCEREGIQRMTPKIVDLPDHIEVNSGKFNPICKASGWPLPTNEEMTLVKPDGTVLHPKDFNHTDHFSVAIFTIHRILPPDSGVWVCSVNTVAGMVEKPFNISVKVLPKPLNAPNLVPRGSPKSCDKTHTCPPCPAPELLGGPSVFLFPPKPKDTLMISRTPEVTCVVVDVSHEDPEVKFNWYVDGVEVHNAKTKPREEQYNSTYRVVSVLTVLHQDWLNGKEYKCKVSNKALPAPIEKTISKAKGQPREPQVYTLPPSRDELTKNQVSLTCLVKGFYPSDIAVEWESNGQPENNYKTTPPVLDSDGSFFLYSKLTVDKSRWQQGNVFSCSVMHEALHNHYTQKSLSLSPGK
Method: as §1, §2

Binding ratio (Human Tie2 (1-452)m1-Fc): 0.31 | Relative value (%) of binding ratio (human Tie2 (1-452)-Fc chimeric protein = 100%) (Human Tie2 (1-452)m1-Fc): 107% | Binding ratio (Human Tie2 (1-452)m3-Fc): 0.04 | Relative value (%) of binding ratio (human Tie2 (1-452)-Fc chimeric protein = 100%) (Human Tie2 (1-452)m3-Fc): 12% | Binding ratio (Human Tie2 (1-452)r4-Fc): 0.33 | Relative value (%) of binding ratio (human Tie2 (1-452)-Fc chimeric protein = 100%) (Human Tie2 (1-452)r4-Fc): 113% | Binding ratio (Human Tie2 (1-452)r1-Fc): 0.29 | Relative value (%) of binding ratio (human Tie2 (1-452)-Fc chimeric protein = 100%) (Human Tie2 (1-452)r1-Fc): 102% | Binding ratio (Human Tie2 (1-452)A6-Fc): 0.31 | Relative value (%) of binding ratio (human Tie2 (1-452)-Fc chimeric protein = 100%) (Human Tie2 (1-452)A6-Fc): 109% | Binding ratio (Human Tie2 (1-452)y1-Fc): 0.25 | Relative value (%) of binding ratio (human Tie2 (1-452)-Fc chimeric protein = 100%) (Human Tie2 (1-452)y1-Fc): 87% | Binding ratio (Human Tie2 (1-452)r2-Fc): 0.28 | Relative value (%) of binding ratio (human Tie2 (1-452)-Fc chimeric protein = 100%) (Human Tie2 (1-452)r2-Fc): 98% | Binding ratio (Human Tie2 (1-452)g6-Fc): 0.38 | Relative value (%) of binding ratio (human Tie2 (1-452)-Fc chimeric protein = 100%) (Human Tie2 (1-452)g6-Fc): 131% | Binding ratio (Human Tie2 (1-452)g1-Fc): 0 | Relative value (%) of binding ratio (human Tie2 (1-452)-Fc chimeric protein = 100%) (Human Tie2 (1-452)g1-Fc): 0% | Binding ratio (Human Tie2 (1-452)g2-Fc): 0.03 | Relative value (%) of binding ratio (human Tie2 (1-452)-Fc chimeric protein = 100%) (Human Tie2 (1-452)g2-Fc): 9% | Binding ratio (Human Tie2 (1-452)r6-Fc): 0.29 | Relative value (%) of binding ratio (human Tie2 (1-452)-Fc chimeric protein = 100%) (Human Tie2 (1-452)r6-Fc): 100% | Binding ratio (Human Tie2 (1-452)r7-Fc): 0.3 | Relative value (%) of binding ratio (human Tie2 (1-452)-Fc chimeric protein = 100%) (Human Tie2 (1-452)r7-Fc): 106% | Binding ratio (Human Tie2 (1-452)g3-Fc): 0.06 | Relative value (%) of binding ratio (human Tie2 (1-452)-Fc chimeric protein = 100%) (Human Tie2 (1-452)g3-Fc): 23% | Binding ratio (Human Tie2 (1-452)A1-Fc): 0.1 | Relative value (%) of binding ratio (human Tie2 (1-452)-Fc chimeric protein = 100%) (Human Tie2 (1-452)A1-Fc): 34% | Binding ratio [1]: 0.29 | Relative value (%) of binding ratio (human Tie2 (1-452)-Fc chimeric protein = 100%) [1]: 100% | Binding ratio (Human Tie2 (1-452)g5-Fc): 0.03 | Relative value (%) of binding ratio (human Tie2 (1-452)-Fc chimeric protein = 100%) (Human Tie2 (1-452)g5-Fc): 9% | Binding ratio (Human Tie2 (1-452)g4-Fc): 0.02 | Relative value (%) of binding ratio (human Tie2 (1-452)-Fc chimeric protein = 100%) (Human Tie2 (1-452)g4-Fc): 7%
B1: fully human 2-16A2-Fab (Fab, V domains shown)
VH: EVQLVESGGGLVQPGGSLRLSCAASGFTFDDYAMHWVRQAPGKGLEWVAGISWNSGSIVYADSVKGRFTISRDNSKNTLYLQMNSLRAEDTAVYYCAKDIREQLVEDAFDIWGQGTLVTVSS
VL: DIQMTQSPSSLSASVGDRVTITCRSSQSLLHSHRYNYLDWYQQKPGKAPKLLIYLGSNRASGVPSRFSGSGSGTDFTLTISSVQPEDFATYYCMQTLQTPLTFGQGTKVEIKR
notes: also called Fab of the fully human 2-16A2
